From paper PMC3013012

Columns and labels:
[1] = target: SETDB1 peptide RQVAVKme2STRGFALKme2STHGIAIKme2STN (human)
[2] = target: SETDB1 peptide RQVAVKme3STRGFALKme3STHGIAIKme3STN (human)

Kd [1] [µM]	Kd [2] [µM]	Substance
180	–	Cbx8 chromodomain, Cbx8-(8–61) (from UniProt Q9HC52 8-61) (domain or fragment)
15	1.2	Cbx7 chromodomain, Cbx7-(8–62) (from UniProt O95931 8-62) (domain or fragment)
